Results from the Human Domainome abundance scans (Beltran et al. 2025).
± gives the uncertainty stated by the source.

B1: Nuclear receptor subfamily 4 group A member 2, residues 260 to 336; numbered along this chain, P43354 (parent)
chain: EGLCAVCGDNAACQHYGVRTCEGCKGFFKRTVQKNAKYVCLANKNCPVDKRRRNRCQYCRFQKCLAVGMVKEVVRTD

Variants of: B1
Assay: abundance fitness (aPCA) (normalised: wild type 0, dead -1); higher = more abundant; growth selection in yeast, the domain comes from the species named
Details: Homo sapiens

Variant	abundance fitness
V48W	-0.258 ± 0.05
V48R	-0.449 ± 0.1
V48A	-0.409 ± 0.17
V48G	-0.493 ± 0.041
C40W	-0.761 ± 0.31
C40Y	0.296 ± 0.32
C40R	-0.799 ± 0.4
F27Y	-0.846 ± 0.33
F27T	-1.04 ± 0.33
F27W	-0.126 ± 0.071
F27R	-0.975 ± 0.15
F27S	-1.12 ± 0.29
F27V	-0.934 ± 0.18
P47V	-0.056 ± 0.049
P47I	0.009 ± 0.2
P47A	-0.033 ± 0.13
P47C	-0.184 ± 0.081
P47W	-0.215 ± 0.062
P47E	-0.083 ± 0.17
P47G	-0.085 ± 0.037
P47R	-0.102 ± 0.092
P47F	-0.183 ± 0.1
P47M	-0.239 ± 0.48
P47L	-0.004 ± 0.063

Variant	abundance fitness
P47S	-0.076 ± 0.12
P47D	0.106 ± 0.098
V39A	-0.107 ± 0.17
V39E	-0.058 ± 0.16
V39S	0.071 ± 0.13
V39L	-0.153 ± 0.2
V39Y	-0.309 ± 0.29
V39W	0.017 ± 0.17
V39Q	-0.244 ± 0.31
V39G	-0.616 ± 0.18
V39R	-0.055 ± 0.097
V39P	0.158 ± 0.23
R52D	0.002 ± 0.12
R52V	-0.021 ± 0.043
R52L	-0.043 ± 0.057
R52W	0.01 ± 0.063
R52K	0.041 ± 0.13
R52E	0 ± 0.094
R52C	-0.061 ± 0.071
R52S	-0.31 ± 0.14
R52A	0.025 ± 0.083
R52M	-0.021 ± 0.1
R52G	0.065 ± 0.036
R52Y	0.204 ± 0.47

Variant	abundance fitness
R52F	-0.08 ± 0.094
K44L	-0.096 ± 0.16
K44Y	-0.053 ± 0.37
K44G	-0.052 ± 0.09
K44M	0.037 ± 0.14
K44D	-0.093 ± 0.16
K44A	-0.265 ± 0.24
K44W	-0.126 ± 0.17
K44V	-0.371 ± 0.21
K44H	-0.129 ± 0.25
K44C	-0.464 ± 0.21
K44T	-0.028 ± 0.15
K44R	-0.03 ± 0.12
R55D	-0.065 ± 0.13
R55G	-0.023 ± 0.035
R55V	0.024 ± 0.04
R55A	-0.134 ± 0.081
R55S	-0.164 ± 0.1
R55L	0.035 ± 0.06
R55W	-0.026 ± 0.054
R55M	-0.089 ± 0.12
R55C	-0.028 ± 0.076
R55Y	0.038 ± 0.16
R55E	-0.035 ± 0.12

Variant	abundance fitness
N54W	-0.015 ± 0.061
N54I	0.164 ± 0.43
N54G	0.06 ± 0.038
N54S	0.148 ± 0.091
N54T	-0.555 ± 0.47
N54Q	-0.032 ± 0.24
N54R	-0.15 ± 0.11
N54P	-0.34 ± 0.43
N54F	-0.143 ± 0.12
N54D	0.135 ± 0.2
N54E	-0.244 ± 0.24
N54C	-0.472 ± 0.11
N54A	-0.148 ± 0.14
N54V	-0.094 ± 0.052
N54L	-0.123 ± 0.065
K34W	-0.227 ± 0.49
K34S	-0.051 ± 0.21
K34G	0.05 ± 0.12
K34R	-0.243 ± 0.24
K34V	-0.037 ± 0.23
K34C	-0.033 ± 0.41
A42I	-0.183 ± 0.23
A42W	-0.305 ± 0.23
A42R	-0.255 ± 0.12

Variant	abundance fitness
A42T	0.002 ± 0.13
A42G	-0.09 ± 0.28
A42V	-0.09 ± 0.14
A42M	-0.208 ± 0.43
A42S	0.048 ± 0.17
A42K	0.629 ± 0.5
A42N	-0.452 ± 0.49
K37F	-0.362 ± 0.48
K37H	-0.124 ± 0.18
K37C	-0.134 ± 0.25
K37T	0.067 ± 0.15
K37E	-0.177 ± 0.18
K37P	-0.008 ± 0.16
K37G	-0.07 ± 0.073
K37R	-0.099 ± 0.081
K37V	-0.118 ± 0.1
K37A	-0.197 ± 0.11
K37M	0.11 ± 0.16
K37D	-0.07 ± 0.27
K37Q	-0.041 ± 0.17
K37Y	0.019 ± 0.21
K37S	-0.213 ± 0.13
Q33R	-0.252 ± 0.37
Q33K	-0.035 ± 0.23

Variant	abundance fitness
Q33L	-0.049 ± 0.25
L41P	0.241 ± 0.27
L41T	-0.08 ± 0.22
L41M	0.039 ± 0.11
L41A	-0.025 ± 0.29
L41E	0.064 ± 0.17
L41K	-0.167 ± 0.25
L41G	-0.109 ± 0.11
L41R	-0.064 ± 0.095
L41H	-0.069 ± 0.37
L41V	0.022 ± 0.15
L41S	-0.072 ± 0.16
L41Q	-0.248 ± 0.27
A36S	-0.095 ± 0.1
A36K	-0.291 ± 0.26
A36M	-0.093 ± 0.24
A36L	0.017 ± 0.097
A36D	-0.019 ± 0.1
A36C	-0.017 ± 0.14
A36G	-0.093 ± 0.071
A36V	-0.023 ± 0.079
A36P	-0.081 ± 0.3
A36W	-0.057 ± 0.12
A36F	0.458 ± 0.19

Variant	abundance fitness
A36E	-0.001 ± 0.11
A36Q	-0.085 ± 0.24
T31R	-0.126 ± 0.22
T31Q	-0.167 ± 0.45
T31V	-0.061 ± 0.33
R51W	0.054 ± 0.051
R51M	0.019 ± 0.3
R51T	0.166 ± 0.21
R51L	0.042 ± 0.056
R51E	0.082 ± 0.12
R51Y	-0.109 ± 0.17
R51V	-0.035 ± 0.041
R51F	0.064 ± 0.096
R51C	-0.188 ± 0.09
R51G	-0.001 ± 0.034
V32C	-0.071 ± 0.36
V32H	-0.224 ± 0.27
V32T	0.036 ± 0.34
V32A	0.211 ± 0.23
V32E	0.101 ± 0.45
V32K	-0.532 ± 0.26
V32L	-0.511 ± 0.41
V32R	0.256 ± 0.2
